Laboratory results as given in patent US7314753.

Legend:
[1] = molecular target: CEA (carcino-embryonic antigen) (UniProt P06731); assay: enzyme activity specificity test, CEA-coated plate; pH 5.0 eluate 1:3, dilution 1:32
[2] = molecular target: CEA (carcino-embryonic antigen) (UniProt P06731); assay: enzyme activity specificity test, CEA-coated plate; pH 5.0 eluate ultraconcentrate 1:10, dilution 1:256
[3] = molecular target: CEA (carcino-embryonic antigen) (UniProt P06731); assay: enzyme activity specificity test, CEA-coated plate; void volume of affinity column 1:1, dilution 1:32
[4] = molecular target: CEA (carcino-embryonic antigen) (UniProt P06731); assay: enzyme activity specificity test, CEA-coated plate; void volume of affinity column 1:1, dilution 1:128
[5] = molecular target: CEA (carcino-embryonic antigen) (UniProt P06731); assay: enzyme activity specificity test, CEA-coated plate; pH 5.0 eluate ultraconcentrate 1:10, dilution 1:32
[6] = molecular target: CEA (carcino-embryonic antigen) (UniProt P06731); assay: enzyme activity specificity test, CEA-coated plate; void volume of affinity column 1:1, dilution 1:256
[7] = molecular target: CEA (carcino-embryonic antigen) (UniProt P06731); assay: enzyme activity specificity test, CEA-coated plate; void volume of affinity column 1:1, dilution 1:2
[8] = molecular target: CEA (carcino-embryonic antigen) (UniProt P06731); assay: enzyme activity specificity test, CEA-coated plate; pH 5.0 eluate ultraconcentrate 1:10, dilution 1:64
[9] = molecular target: CEA (carcino-embryonic antigen) (UniProt P06731); assay: enzyme activity specificity test, CEA-coated plate; disrupted cell suspension 1:3, dilution 1:2
[10] = molecular target: CEA (carcino-embryonic antigen) (UniProt P06731); assay: enzyme activity specificity test, CEA-coated plate; pH 5.0 eluate ultrafiltrate 1:1, dilution 1:16
[11] = molecular target: CEA (carcino-embryonic antigen) (UniProt P06731); assay: enzyme activity specificity test, CEA-coated plate; pH 5.0 eluate ultrafiltrate 1:1, dilution 1:4
[12] = molecular target: CEA (carcino-embryonic antigen) (UniProt P06731); assay: enzyme activity specificity test, CEA-coated plate; pH 5.0 eluate ultrafiltrate 1:1, dilution 1:128
[13] = molecular target: CEA (carcino-embryonic antigen) (UniProt P06731); assay: enzyme activity specificity test, CEA-coated plate; void volume of affinity column 1:1, dilution 1:16
[14] = molecular target: CEA (carcino-embryonic antigen) (UniProt P06731); assay: enzyme activity specificity test, CEA-coated plate; pH 5.0 eluate ultrafiltrate 1:1, dilution 1:2
[15] = molecular target: CEA (carcino-embryonic antigen) (UniProt P06731); assay: enzyme activity specificity test, CEA-coated plate; pH 5.0 eluate ultraconcentrate 1:10, dilution 1:16
[16] = molecular target: CEA (carcino-embryonic antigen) (UniProt P06731); assay: enzyme activity specificity test, CEA-coated plate; pH 5.0 eluate ultrafiltrate 1:1, dilution 1:8
[17] = molecular target: CEA (carcino-embryonic antigen) (UniProt P06731); assay: enzyme activity specificity test, CEA-coated plate; pH 5.0 eluate 1:3, dilution 1:64
[18] = molecular target: CEA (carcino-embryonic antigen) (UniProt P06731); assay: enzyme activity specificity test, CEA-coated plate; pH 5.0 eluate 1:3, dilution 1:128
[19] = molecular target: CEA (carcino-embryonic antigen) (UniProt P06731); assay: enzyme activity specificity test, CEA-coated plate; pH 5.0 eluate 1:3, dilution 1:256
[20] = molecular target: CEA (carcino-embryonic antigen) (UniProt P06731); assay: enzyme activity specificity test, CEA-coated plate; pH 5.0 eluate ultrafiltrate 1:1, dilution 1:256
[21] = molecular target: CEA (carcino-embryonic antigen) (UniProt P06731); assay: enzyme activity specificity test, CEA-coated plate; disrupted cell suspension 1:3, dilution 1:64
[22] = molecular target: CEA (carcino-embryonic antigen) (UniProt P06731); assay: enzyme activity specificity test, CEA-coated plate; pH 5.0 eluate ultrafiltrate 1:1, dilution 1:64
[23] = molecular target: CEA (carcino-embryonic antigen) (UniProt P06731); assay: enzyme activity specificity test, CEA-coated plate; void volume of affinity column 1:1, dilution 1:8
[24] = molecular target: CEA (carcino-embryonic antigen) (UniProt P06731); assay: enzyme activity specificity test, CEA-coated plate; disrupted cell suspension 1:3, dilution 1:256
[25] = molecular target: CEA (carcino-embryonic antigen) (UniProt P06731); assay: enzyme activity specificity test, CEA-coated plate; disrupted cell suspension 1:3, dilution 1:128
[26] = molecular target: CEA (carcino-embryonic antigen) (UniProt P06731); assay: enzyme activity specificity test, CEA-coated plate; pH 5.0 eluate 1:3, dilution 1:2
[27] = molecular target: CEA (carcino-embryonic antigen) (UniProt P06731); assay: enzyme activity specificity test, CEA-coated plate; disrupted cell suspension 1:3, dilution 1:16
[28] = molecular target: CEA (carcino-embryonic antigen) (UniProt P06731); assay: enzyme activity specificity test, CEA-coated plate; pH 5.0 eluate ultraconcentrate 1:10, dilution 1:128
[29] = molecular target: CEA (carcino-embryonic antigen) (UniProt P06731); assay: enzyme activity specificity test, CEA-coated plate; void volume of affinity column 1:1, dilution 1:4
[30] = molecular target: CEA (carcino-embryonic antigen) (UniProt P06731); assay: enzyme activity specificity test, CEA-coated plate; pH 5.0 eluate ultrafiltrate 1:1, dilution 1:32
[31] = molecular target: CEA (carcino-embryonic antigen) (UniProt P06731); assay: enzyme activity specificity test, CEA-coated plate; pH 5.0 eluate ultraconcentrate 1:10, dilution 1:4
[32] = molecular target: CEA (carcino-embryonic antigen) (UniProt P06731); assay: enzyme activity specificity test, CEA-coated plate; disrupted cell suspension 1:3, dilution 1:8
[33] = molecular target: CEA (carcino-embryonic antigen) (UniProt P06731); assay: enzyme activity specificity test, CEA-coated plate; pH 5.0 eluate 1:3, dilution 1:8
[34] = molecular target: CEA (carcino-embryonic antigen) (UniProt P06731); assay: enzyme activity specificity test, CEA-coated plate; pH 5.0 eluate ultraconcentrate 1:10, dilution 1:8
[35] = molecular target: CEA (carcino-embryonic antigen) (UniProt P06731); assay: enzyme activity specificity test, CEA-coated plate; void volume of affinity column 1:1, dilution 1:64
[36] = molecular target: CEA (carcino-embryonic antigen) (UniProt P06731); assay: enzyme activity specificity test, CEA-coated plate; disrupted cell suspension 1:3, dilution 1:32
[37] = molecular target: CEA (carcino-embryonic antigen) (UniProt P06731); assay: enzyme activity specificity test, CEA-coated plate; pH 5.0 eluate 1:3, dilution 1:16
[38] = molecular target: CEA (carcino-embryonic antigen) (UniProt P06731); assay: enzyme activity specificity test, CEA-coated plate; pH 5.0 eluate ultraconcentrate 1:10, dilution 1:2
[39] = molecular target: CEA (carcino-embryonic antigen) (UniProt P06731); assay: enzyme activity specificity test, CEA-coated plate; disrupted cell suspension 1:3, dilution 1:4
[40] = molecular target: CEA (carcino-embryonic antigen) (UniProt P06731); assay: enzyme activity specificity test, CEA-coated plate; pH 5.0 eluate 1:3, dilution 1:4

Chain of UniProt P06731 (P06731 35-685 limits assumed): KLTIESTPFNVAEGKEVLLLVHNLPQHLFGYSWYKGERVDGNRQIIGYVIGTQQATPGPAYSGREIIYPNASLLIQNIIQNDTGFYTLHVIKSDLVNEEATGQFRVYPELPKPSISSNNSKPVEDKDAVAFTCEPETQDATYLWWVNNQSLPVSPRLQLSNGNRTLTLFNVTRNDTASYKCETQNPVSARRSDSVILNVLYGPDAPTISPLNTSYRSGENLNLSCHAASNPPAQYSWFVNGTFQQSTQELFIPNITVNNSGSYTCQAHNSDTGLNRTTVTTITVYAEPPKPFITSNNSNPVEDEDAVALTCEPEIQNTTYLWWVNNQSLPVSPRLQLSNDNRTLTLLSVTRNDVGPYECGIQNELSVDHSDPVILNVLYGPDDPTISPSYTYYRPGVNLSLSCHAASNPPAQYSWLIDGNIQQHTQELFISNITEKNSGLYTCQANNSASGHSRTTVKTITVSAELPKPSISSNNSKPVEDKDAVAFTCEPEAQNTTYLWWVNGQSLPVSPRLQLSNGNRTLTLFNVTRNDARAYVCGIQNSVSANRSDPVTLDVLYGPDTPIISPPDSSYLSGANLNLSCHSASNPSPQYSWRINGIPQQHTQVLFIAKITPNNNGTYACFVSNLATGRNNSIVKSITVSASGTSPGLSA

B1: Fab BW 431/26-E. coli β-glucuronidase fusion protein (protein)
heavy: MEVQLQESGPGLVRPSQTLSLTCTVSGFTISSGYSWHWVRQPPGRGLEWIGYIQYSGITNYNPSLKSRVTMLVDTSKNQFSLRLSSVTAADTAVYYCAREDYDYHWYFDVWGQGSLVTVTVSSASTKGPSVFPLAPCSRSTSGGTAALGCLVKDYFPEPVTVSWNSGALTSGVHTFPAVLQSSGLYSLSSVVTVPSSSLGTQTYTCNVNHKPSNTKVDKRVELGSGSGSMVRPVETPTREIKKLDGLWAFSLDRENCGIDQRWWESALQESRAIAVPGSFNDQFADADIRNYAGNVWYQREVFIPKGWAGQRIVLRFDAVTHYGKVWVNNQEVMEHQGGYTPFEADVTPYVIAGKSVRITVCVNNELNWQTIPPGMVITDENGKKKQSYFHNFFNYAGIHRSVMLYTTPNTWVDDITVVTHVAQDCNHASVDWQVVANGDVSVELRDADQQVVATGQGTSGTLQVVNPHLWQPGEGYLYELCVTAKSQTECDIYPLRVGIRSVAVKGEQFLINHKPFYFTGFGRHEDADLRGKGFDNVLMVHDHALMDWIGANSYRTSHYPYAEEMLDWADEHGIVVIDETAAVGFNLSLGIGFEAGNKPKELYSEEAVNGETQQAHLQAIKELIARDKNHPSVVMWSIANEPDTRPQGAREYFAPLAEATRKLDPTRPITCVNVMFCDAHTDTISDLFDVLCLNRYYGWYVQSGDLETAEKVLEKELLAWQEKLHQPIIITEYGVDTLAGLHSMYTDMWSEEYQCAWLDMYHRVFDRVSAVVGEQVWNFADFATSQGILRVGGNKKGIFTRDRKPKSAAFLLQKRWTGMNFGEKPQQGGKQ
light: MDIQMTQSPSSLSASVGDRVTITCSTSSSVSYMHWYQQKPGKAPKLLIYSTSNLASGVPSRFSGSGSGTDFTFTISSLQPEDIATYYCHQWSSYPTFGQGTKVEIKRTVAAPSVFIFPPSDEQLKSGTASVVCLLNNFYPREAKVQWKVDNALQSGNSQESVTEQDSKDSTYSLSSTLTLSKADYEKHKVYACEVTHQGLSSPVTKSFNRGEC
**Q.** With B1 as the binder, how does the relative fluorescence units (FU) [1] read?
**A.** The relative fluorescence units (FU) was 1980 FU.

**Q.** What about the relative fluorescence units (FU) [2] of the same binder?
**A.** Its relative fluorescence units (FU) is 666 FU.

**Q.** And the relative fluorescence units (FU) [3]?
**A.** The relative fluorescence units (FU) was 525 FU.

**Q.** What about the relative fluorescence units (FU) [4] of the same binder?
**A.** Its relative fluorescence units (FU) is 86.2 FU.

**Q.** What about the relative fluorescence units (FU) [5] of the same binder?
**A.** Its relative fluorescence units (FU) is 5800 FU.

**Q.** And the relative fluorescence units (FU) [6]?
**A.** The relative fluorescence units (FU) was 46.3 FU.

**Q.** And the relative fluorescence units (FU) [7]?
**A.** The relative fluorescence units (FU) was 6550 FU.

**Q.** And the relative fluorescence units (FU) [8]?
**A.** The relative fluorescence units (FU) was 3620 FU.

**Q.** And the relative fluorescence units (FU) [9]?
**A.** The relative fluorescence units (FU) was 8180 FU.

**Q.** And the relative fluorescence units (FU) [10]?
**A.** The relative fluorescence units (FU) was 52.3 FU.

**Q.** And the relative fluorescence units (FU) [11]?
**A.** Its relative fluorescence units (FU) is 173 FU.

**Q.** And the relative fluorescence units (FU) [12]?
**A.** The relative fluorescence units (FU) was 23.5 FU.

**Q.** What about the relative fluorescence units (FU) [13] of the same binder?
**A.** Its relative fluorescence units (FU) is 1480 FU.

**Q.** And the relative fluorescence units (FU) [14]?
**A.** Its relative fluorescence units (FU) is 74.7 FU.

**Q.** And the relative fluorescence units (FU) [15]?
**A.** The relative fluorescence units (FU) was 7150 FU.

**Q.** What about the relative fluorescence units (FU) [16] of the same binder?
**A.** The relative fluorescence units (FU) was 90.2 FU.

**Q.** And the relative fluorescence units (FU) [17]?
**A.** The relative fluorescence units (FU) was 816 FU.

**Q.** What about the relative fluorescence units (FU) [18] of the same binder?
**A.** The relative fluorescence units (FU) was 302 FU.

**Q.** What about the relative fluorescence units (FU) [19] of the same binder?
**A.** Its relative fluorescence units (FU) is 114 FU.

**Q.** What about the relative fluorescence units (FU) [20] of the same binder?
**A.** The relative fluorescence units (FU) was 19.4 FU.

**Q.** And the relative fluorescence units (FU) [21]?
**A.** Its relative fluorescence units (FU) is 2510 FU.

**Q.** And the relative fluorescence units (FU) [22]?
**A.** Its relative fluorescence units (FU) is 25.8 FU.

**Q.** What about the relative fluorescence units (FU) [23] of the same binder?
**A.** Its relative fluorescence units (FU) is 3220 FU.

**Q.** What about the relative fluorescence units (FU) [24] of the same binder?
**A.** Its relative fluorescence units (FU) is 422 FU.

**Q.** And the relative fluorescence units (FU) [25]?
**A.** The relative fluorescence units (FU) was 1020 FU.

**Q.** What about the relative fluorescence units (FU) [26] of the same binder?
**A.** Its relative fluorescence units (FU) is 7780 FU.

**Q.** What about the relative fluorescence units (FU) [27] of the same binder?
**A.** The relative fluorescence units (FU) was 6630 FU.

**Q.** What about the relative fluorescence units (FU) [28] of the same binder?
**A.** Its relative fluorescence units (FU) is 1650 FU.

**Q.** And the relative fluorescence units (FU) [29]?
**A.** The relative fluorescence units (FU) was 5230 FU.

**Q.** What about the relative fluorescence units (FU) [30] of the same binder?
**A.** Its relative fluorescence units (FU) is 38.8 FU.

**Q.** And the relative fluorescence units (FU) [31]?
**A.** The relative fluorescence units (FU) was 8110 FU.

**Q.** And the relative fluorescence units (FU) [32]?
**A.** Its relative fluorescence units (FU) is 7530 FU.

**Q.** What about the relative fluorescence units (FU) [33] of the same binder?
**A.** The relative fluorescence units (FU) was 6360 FU.

**Q.** And the relative fluorescence units (FU) [34]?
**A.** The relative fluorescence units (FU) was 8040 FU.

**Q.** And the relative fluorescence units (FU) [35]?
**A.** The relative fluorescence units (FU) was 214 FU.

**Q.** What about the relative fluorescence units (FU) [36] of the same binder?
**A.** The relative fluorescence units (FU) was 4560 FU.

**Q.** And the relative fluorescence units (FU) [37]?
**A.** The relative fluorescence units (FU) was 4240 FU.

**Q.** And the relative fluorescence units (FU) [38]?
**A.** The relative fluorescence units (FU) was 7900 FU.

**Q.** And the relative fluorescence units (FU) [39]?
**A.** Its relative fluorescence units (FU) is 8150 FU.

**Q.** What about the relative fluorescence units (FU) [40] of the same binder?
**A.** Its relative fluorescence units (FU) is 7570 FU.
